Assay results taken from US11299518B2, “Fusion respiratory syncytial virus inhibitors and use thereof” (priority 2016, dated 2022).
“And” between values parts separate entries of the source, which are not always exact repeats. Equal values may be shown once. Numbered stars: 1 amine (or outer) side, 2 acyl side, 3 side chain; on linkers, the order of the positions; unused ones are H or OH. Bridge positions count the residues as written; N and C are the ends. Square brackets hold non-standard residues; d marks the D form. Peptide text beside a SMILES is read from it. Nle(6-ylidene) = O=C([C@H](CCCC=[*:3])N[*:1])[*:2]; tBuAla = CC(C)(C)C[C@H](N)C(=O)O; R5 = C=CCCC[C@@](C)(N)C(=O)O; S5 = C=CCCC[C@](C)(N)C(=O)O

Legend:
[1] = CD spectroscopy, percentage of helicity; assay type: physicochemical; settings: CD at 222 nm, 10 mM phosphate buffer pH 7.5, 50 μM peptide, 25° C.
Procedure: The secondary structure of the peptides was then characterized by circular dichroism (DC) as described below.
The circular dichroism spectra were acquired on a Jasco J-810 and on a Chirascan spectropolarimeter. The samples were prepared in 10 mM phosphate buffer, pH 7.5, at a peptide concentration of 50 μM. Data were recorded at 25° C. by stepscan from 180 nm to 260 nm in a 0.1 cm pathlength quartz cell using 0.2 nm wavelength increments, 1 nm bandwidth and a response time of 0.5 sec. Each spectrum was an average of three measurements and was subtracted from buffer baseline. The data were converted to per residue molar ellipticity units [θ] (deg·cm2·dmol−1·residue−1) and smoothed using the Igor software. The percentage of helicity was calculated as it follows:
[formula] whereby CD222=molar ellipticity at 222 nm in [mdeg], N=number of amino acids in the peptide and C=peptide molar concentration [mol/l].

[2] = circular dichroism; settings: 10 mM phosphate; pH 7.5; 25 °C; 50 uM

Compound	% helicity [1]	helicity [2]
EQSLAFIRKSDELLHNV (comparative peptide 3) [non-stapled native comparative peptide, reference compound]	5.9% and 6.6%	–
EFPS X486 EFD X490 SI X493 QVN X497 KIN (EFPSXEFDXSIXQVNXKIN; not fully specified; (S)-2-(4-pentenyl)alanine residues, likely stapled; comparative peptide 1eg; (1)..(1) N-term acetylated; (5)..(5) (S)-2-(4-pentenyl)alanine; (9)..(9) (S)-2-(4-pentenyl)alanine; (12)..(12) (S)-2-(4-pentenyl)alanine; (16)..(16) (S)-2-(4-pentenyl)alanine; (19)..(19) C-term amidated) [comparative peptide; X486, X490, X493 and X497 are (S)-2-(4-pentenyl)alanine, reference compound]	35.3%	–
CC[C@H](C)[C@@H]1NC(=O)[C@H](Cc2ccccc2)NC(=O)[C@@](C)(NC(=O)[C@H](CC(C)C)NC(=O)[C@H](CO)NC(=O)[C@]2(C)CCCC=CCCC[C@@](C)(NC(C)=O)C(=O)N[C@@H]([C@@H](C)CC)C(=O)N[C@@H](CC(N)=O)C(=O)N2)CCCC=CCCC[C@@](C)(C(=O)N[C@@H](CO)C(=O)N[C@@H](CC(=O)O)C(=O)N[C@@H](CCC(=O)O)C(=O)N[C@@H](CC(C)C)C(=O)N[C@@H](CC(C)C)C(N)=O)NC(=O)[C@H](CCCNC(=N)N)NC1=O [Peptide 4ca16, X498 IN X501 SL X504 FIR X508 SDELL] (Ac-[R5]IN[S5]SL[S5]FIR[S5]SDELL-NH2; staple 1-4, 7-11)	>100%	–
CC[C@H](C)[C@@H]1NC(=O)[C@H](Cc2ccccc2)NC(=O)[C@@](C)(NC(=O)[C@H](CC(C)C)NC(=O)[C@H](CO)NC(=O)[C@]2(C)CCCC=CCCC[C@@](C)(NC(=O)[C@H](CCC(=O)O)NC(C)=O)C(=O)N[C@@H]([C@@H](C)CC)C(=O)N[C@@H](CCCNC(=N)N)C(=O)N2)CCCC=CCCC[C@@](C)(C(=O)N[C@@H](CO)C(=O)N[C@@H](CC(=O)O)C(=O)N[C@@H](CCC(=O)O)C(=O)N[C@@H](CC(C)(C)C)C(=O)N[C@@H](CC(C)C)C(=O)N[C@@H](Cc2c[nH]cn2)C(=O)N[C@@H](CC(N)=O)C(=O)N[C@H](C(N)=O)C(C)C)NC(=O)[C@H](CCCNC(=N)N)NC1=O [Peptide 4ca-var6, E Xaa2 IR Xaa5 SL Xaa8 FIR Xaa12 SDE Xaa16LHNV] (Ac-E[R5]IR[S5]SL[S5]FIR[S5]SDE[tBuAla]LHNV-NH2; staple 2-5, 8-12)	85.6%	85.6%
CC[C@H](C)[C@H](NC(=O)[C@H](CCCCN)NC(=O)[C@H](CCC(=O)O)NC(C)=O)C(=O)N[C@@H](CC(N)=O)C(=O)N[C@@H](CCC(N)=O)C(=O)N[C@@H](CO)C(=O)N[C@@H](CC(C)C)C(=O)N[C@H]1CCCC=CCCC[C@@H](C(=O)N[C@@H](CO)C(=O)N[C@@H](CC(=O)O)C(=O)N[C@H]2CCCC=CCCC[C@@H](C(=O)N[C@H](C(N)=O)C(C)C)NC(=O)[C@H](Cc3c[nH]cn3)NC(=O)[C@H](CC(C)C)NC(=O)[C@H](CC(C)C)NC2=O)NC(=O)[C@H](CCCNC(=N)N)NC(=O)[C@H]([C@@H](C)CC)NC(=O)[C@H](Cc2ccccc2)NC1=O (Ac-EKINQSL[Nle(6-ylidene)]FIR[Nle(6-ylidene)]SD[Nle(6-ylidene)]LLH[Nle(6-ylidene)]V-NH2; staple 8-12, 15-19)	–	46%
CC[C@H](C)[C@@H]1NC(=O)[C@H](Cc2ccccc2)NC(=O)[C@@](C)(NC(=O)[C@H](CC(C)C)NC(=O)[C@H](CO)NC(=O)[C@]2(C)CCCC=CCCC[C@@](C)(NC(=O)[C@H](CCC(=O)O)NC(C)=O)C(=O)N[C@@H]([C@@H](C)CC)C(=O)N[C@@H](CC(N)=O)C(=O)N2)CCCC=CCCC[C@@](C)(C(=O)N[C@@H](CO)C(=O)N[C@@H](CC(=O)O)C(=O)N[C@@H](CCC(=O)O)C(=O)N[C@@H](CC(C)(C)C)C(=O)N[C@@H](CC(C)C)C(=O)N[C@@H](Cc2c[nH]cn2)C(N)=O)NC(=O)[C@H](CCCNC(=N)N)NC1=O [Peptide 4ca-var8, E Xaa2 IN Xaa5 SL Xaa8 FIR Xaa12 SDE Xaa16LH] (Ac-E[R5]IN[S5]SL[S5]FIR[S5]SDE[tBuAla]LH-NH2; staple 2-5, 8-12)	75.8%	75.8%
CC[C@H](C)[C@@H]1NC(=O)[C@H](Cc2ccccc2)NC(=O)[C@@H](NC(=O)[C@H](CC(C)C)NC(=O)[C@H](CO)NC(=O)[C@@H]2CCCC=CCCC[C@@](C)(NC(=O)[C@H](CCC(=O)O)NC(C)=O)C(=O)N[C@@H]([C@@H](C)CC)C(=O)N[C@@H](CC(N)=O)C(=O)N2)CCCC=CCCC[C@@H](C(=O)N[C@@H](CO)C(=O)N[C@@H](CC(=O)O)C(=O)N[C@@H](CCC(=O)O)C(=O)N[C@@H](CC(C)C)C(=O)N[C@@H](CC(C)C)C(=O)N[C@@H](Cc2c[nH]cn2)C(=O)N[C@@H](CC(N)=O)C(=O)N[C@H](C(N)=O)C(C)C)NC(=O)[C@H](CCCNC(=N)N)NC1=O [Peptide 4ca2] (Ac-E[R5]IN[Nle(6-ylidene)]SL[Nle(6-ylidene)]FIR[Nle(6-ylidene)]SDELLHNV-NH2; staple 2-5, 8-12)	58.1%	58.1%
Ac-FDASISQVNEKINQSLAFIRKSDELLHNVNAGKST-NH2 (N-terminus and C-terminus assumed) [Peptide T118, reference compound]	23.4%	–
EKINQSL Xaa8 FIR Xaa12 SD Xaa15 LLH Xaa19 V (Ac-EKINQSL[(S)‑2‑(4-pentenyl)glycine]FIR[(S)‑2‑(4-pentenyl)glycine]SD[(S)‑2‑(4-pentenyl)glycine]LLH[(S)‑2‑(4-pentenyl)glycine]V-NH2; staple 8-12, 15-19 (inferred); not fully specified; printed as EKINQSL Xaa8 FIR Xaa12 SD Xaa15 LLH Xaa19 V) [Peptide 4a2, Xaa8, Xaa12, Xaa15 and Xaa19 are (S)-2-(4-pentenyl)glycine; Formula (C7)]	46%	–
CC[C@H](C)[C@@H]1NC(=O)[C@H](Cc2ccccc2)NC(=O)[C@@](C)(NC(=O)[C@H](CC(C)C)NC(=O)[C@H](CO)NC(=O)[C@]2(C)CCCC=CCCC[C@@](C)(NC(=O)[C@H](CCC(=O)O)NC(C)=O)C(=O)N[C@@H]([C@@H](C)CC)C(=O)N[C@@H](CC(N)=O)C(=O)N2)CCCC=CCCC[C@@](C)(C(=O)N[C@@H](CO)C(=O)N[C@@H](CC(=O)O)C(=O)N[C@@H](CCC(=O)O)C(=O)N[C@@H](CC(C)C)C(=O)N[C@@H](CC(C)C)C(=O)N[C@@H](Cc2c[nH]cn2)C(N)=O)NC(=O)[C@H](CCCNC(=N)N)NC1=O [Peptide 4ca18, E Xaa2 IN Xaa5 SL Xaa8 FIR Xaa12 SDELLH] (Ac-E[R5]IN[S5]SL[S5]FIR[S5]SDELLH-NH2; staple 2-5, 8-12)	43%	43%
EKI Xaa4 A SL Xaa8 FI Xaa11 KSD Xaa15 LLHNV (Ac-EKI[S5]ASL[S5]FI[S5]KSD[S5]LLHNV-NH2; staple 11-15, 4-8 (inferred)) [Peptide V4bb501]	12%	–
EKA Xaa4 QSL Xaa8 FI Xaa11 KSD Xaa15 LLHNV (Ac-EKA[S5]QSL[S5]FI[S5]KSD[S5]LLHNV-NH2; staple 11-15, 4-8 (inferred)) [Peptide V4bb499]	24%	–
EKI Xaa4 Q A L Xaa8 FI Xaa11 KSD Xaa15 LLHNV (Ac-EKI[S5]QAL[S5]FI[S5]KSD[S5]LLHNV-NH2; staple 11-15, 4-8 (inferred)) [Peptide V4bb502]	15%	–
